# In patent publication US8008547B2, “Glyphosate-N-acetyltransferase (GAT) genes” (E.I. duPont de Nemours, priority 2000, dated 2011):
# Experiment: Standard protocol for determination of kcat and KM (continuous spectrophotometric assay, Acetyl CoA hydrolysis at 235 nm)
# Type: biochemical
# Conditions: purified protein, about 23° C., 0.2 mM acetyl CoA; for Kcat: 20 mM HEPES pH 6.8, 10% ethylene glycol; for Km: pH 6.8, glyphosate 0.125 to 10 mM
# How it was run: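 KM from initial rates over 0.125–10 mM glyphosate, fitted by Lineweaver-Burke transformation of Michaelis-Menten; kcat/KM computed as kcat divided by KM. Continuous spectrophotometric read of acetyl-CoA hydrolysis at 235 nm.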
Molecule,Kcat,Km
"SEQ ID NO: 408: GAT polypeptide (protein, 6_5F11, GAT polypeptide) MIEVKPINAEDTYEIRHRILRPNQPLEACMYETDLLGGTFHLGGYYRGKLISIASFHQAEHPELEGQKQYQLRGMATLEEYREQKAGSTLIRHAEELLRKKGADLLWCNARTSASGYYKKLGFSEQGEVHDIPPVGPHILMYKKLT",0.668 s⁻¹,1900 µM
"SEQ ID NO: 413: GAT polypeptide (protein, 6_9G11, GAT polypeptide) MIEVKPINAEDTYEIRHRILRPNQPLEACKYETDLLGGTLHLGGYYRGKLISIASFHQAEHSELEGQKQYQLRGMATLEGYREQKAGSTLIRHAEELLRKKGADLLWCNARTSASGYYKKLGFSEQGEVYDIPPVGPHILMYKKLT",1.31 s⁻¹,1300 µM
"SEQ ID NO: 427: GAT polypeptide (protein, 9_20F12, GAT polypeptide) MIEVKPINAEDTYEIRHRVLRPNQPLEACMYETDLLGGTFHLGGYYRGELVSIASFHQAEHPELEGQKQYQLRGMATLEGYREQKAGSTLIRHAEELLRKKGADLLWCNARTSASGYYKKLGFSEQGGVYDIPPVGPHILMYKKLT",0.63 s⁻¹,1000 µM
"SEQ ID NO: 422: GAT polypeptide (protein, 9_13F1, GAT polypeptide) MIEAKPINAEDTYEIRHRILRPNQPLEACMYETDLLGGTFHLGGYYRGKLVSIASFHQAEHTELEGQKQYQLRGMATLEEYREQKAGSTLIRHAEELLRKKGADLLWCNARTSASGYYKKLGFSEQGEVYDIPPVGPHILMYKKLT",0.527 s⁻¹,1100 µM
"SEQ ID NO: 418: GAT polypeptide (protein, 7_2D7, GAT polypeptide) MIEVKPINAEDTYEIRHRILRPNQPLEACKYETDLLGGTFHLGGYYRGKLISIASFHQAEHPELEGQKQYQLRGMATLEGYREQKAGSTLIRHAEELLRKKGADLLWCNARTSASGYYKKLGFSEQGEVYDIPPVGPHILMYKKLT",0.915 s⁻¹,1100 µM
"SEQ ID NO: 273: GAT polypeptide (protein, 10_18G9, GAT polypeptide) MIEVKPINAEDTYEIRHRILRPNQPLEACKYETDLLGGTFHLGGYYRGKLVSIASFHQAEHSELEGQKQYQLRGMATLEEYREQKAGSTLIRHAEELLRKKGADLLWCNARTSASGYYKKLGFSEQGGVYDIPPVGPHILMYKKLT",0.4 s⁻¹,1200 µM
"SEQ ID NO: 419: GAT polypeptide (protein, 7_5C7, GAT polypeptide) MIEVKPINAEDTYEIRHRILRPNQPLEACMYETDLLGGTFHLGGYYRGKLISIASFHQAEHPELEGQKQYQLRGMATLEGYREQKVGSTLIRHAEELLRKKGADLLWCNARTSASGYYKKLGFSEQGGVYDIPPVGPHILMYKKLT",0.745 s⁻¹,1000 µM
"SEQ ID NO: 417: GAT polypeptide (protein, 7_2A11, GAT polypeptide) MIEVKPINAEDTYEIRHRILRPNQPLEACMYETDLLGGTFHLGGYYRGKLISIASFHQAEHSELEGQKQYQLRGMATLEGYREQKAGSTLIRHAEELLRKKGADLLWCNARTSASGYYKKLGFSEQGGVYDIPPVGPHILMYKKLT",0.78 s⁻¹,1100 µM
"SEQ ID NO: 272: GAT polypeptide (protein, 10_17F6, GAT polypeptide) MIEVKPINAEDTYEIRHRILRPNQPLEACKYETDLLGGTFHLGGYYRGKLVSIASFHQAEHSELEGQKQYQLRGMATLEEYREQKAGSTLIRHAEELLRKKGADLLWCNARTSASGYYKKLGFSEQGEVYDIPPVGPHILMYKKLT",0.798 s⁻¹,1400 µM
"SEQ ID NO: 428: GAT polypeptide (protein, 9_21C8, GAT polypeptide) MIEVKPINAEDTYEIRHRILRPNQPLEACMYETDLLGGTFHLGGYYRGKLISIASFHQAEHPELEGQKQYQLRGMATLEGYREQKAGSTLIRHAEELLRKKGADLLWCNARTSASGYYKKLGFSDQGEVYDIPPVGPHILMYKKLT",0.477 s⁻¹,1200 µM
"SEQ ID NO: 415: GAT polypeptide (protein, 7_1C4, GAT polypeptide) MIEVKPINAEDTYEIRHRILRPNQPLEACMYETDLLGGTFHLGGYYRGKLISIASFHQAEHPELEGQKQYQLRGMATLEEYREQKAGSTLIRHAEELLRKKGADLLWCNARTSASGYYKKLGFSEQGGVYDIPPIGPHILMYKKLT",0.29 s⁻¹,1100 µM
"SEQ ID NO: 421: GAT polypeptide (protein, 9_13F10, GAT polypeptide) MIEVKPINAEDTYEIRHRILRPNQPLEACKYETDLLRGAFHLGGYYRGKLVSIASFHQAEHSELEGQKQYQLRGMATLEEYREQKAGSTLIRHAEELLRKKGADLLWCNARTSASGYYKKLGFSEQGEVYDIPPTGPHILMYKKLT",0.578 s⁻¹,700 µM
"SEQ ID NO: 410: GAT polypeptide (protein, 6_6D5, GAT polypeptide) MIEVKPINAEDAYEIRHRILRPNQPLEACKYETDLLGGTFHLGGYYRGKLISIASFHQAEHSELEGQKQYQLRGMATLEGYREQKAGSTLIRHAEELLRKKGADLLWCNARTSASGYYKKLGFSEQGGVYDIPPVGPHILMYKKLT",0.922 s⁻¹,1000 µM
"SEQ ID NO: 412: GAT polypeptide (protein, 6_8H3, GAT polypeptide) MIEVKPINAEDTYEIRHRILRPNQPLEACMYETDLLGGTFHLGGYYRGKLISIASFHQAEHPELEGQKQYQLRGMATLEGYREQKAGSTLIRHAEELLRKKGADLLWCNARTSASGYYKKLGFSEQGGVYDIPPVGPHILMYKKLT",0.745 s⁻¹,1000 µM
"SEQ ID NO: 424: GAT polypeptide (protein, 9_15D8, GAT polypeptide) MIEVKPINAEDTYEIRHRILRPNQPLEACMYETDLLGGTFHLGGYYRGKLVSIASFHQAEHPELEGQKQYQLRGMATLEGYREQKAGSTLIRHAEALLRKKGADLLWCNARTSASGYYKKLGFSEQGEVYDTPPVGPHILMYKKLT",1.788 s⁻¹,1100 µM
"SEQ ID NO: 420: GAT polypeptide (protein, 7_9C9, GAT polypeptide) MIEVKPINAEDTYEIRHRILRPNQPLEACMYETDLLGGTFHLGGYYRGKLISIASFHQAEHPELEGQKQYQLRGMATLEGYREQKAGSTLIRHAEELLRKKGADLLWCNARTSASGYYKKLGFSEQGEVYDIPPIGPHILMYKKLT",1.08 s⁻¹,1000 µM
"SEQ ID NO: 423: GAT polypeptide (protein, 9_15D5, GAT polypeptide) MIEVKPINAEDTYEIRHRILRPNQPLDACKYETDLLGGTFHLGGYYRGKLISIASFHQAEHPELEGQKQYQLRGMATLEGYREQKAGSTLIRHAEELLRKKGADLLWCNARTSASGYYKKLGFSEQGEVYDIPPVGPHILMYKKLT",0.46 s⁻¹,1200 µM
"SEQ ID NO: 426: GAT polypeptide (protein, 9_18H2, GAT polypeptide) MIEVKPINAEDTYEIRHRILRPNQPLEACMYETDLLGGTFHLGGYYRGKLISIASFHQAEHPELVGQKQYQLRGMATLEGYREQKAGSTLIRHAEELLRKKGADLLWCNARTSASGYYKKLGFSEQGEVYDIPPVGPHILMYKKLT",0.417 s⁻¹,1100 µM
"SEQ ID NO: 416: GAT polypeptide (protein, 7_2A10, GAT polypeptide) MIEVKPINAEDTYEIRHRILRPNQPLEACKYETDLLGGTFHLGGYYRGKLISIASFHQAEHPELEGQKQYQLRGMATLEGYREQKAGSTLIRHAEELLRKKGADLLWCNARTSASGYYKKLGFSEQGGVYDIPPIGPHILMYKKLT",0.242 s⁻¹,800 µM
"SEQ ID NO: 409: GAT polypeptide (protein, 6_5G9, GAT polypeptide) MIEVKPINAEDTYEIRHRILRPNQPLEACMYETDLLGGTFHLGGYYRGKLISIASFHQAEHSELEGQKQYQLRGMATLEEYREQKAGSTLIRHAEELLRKKGADLLWCNARISASGYYKKLGFSEQGGVYDIPPVGPHILMYKKLT",0.597 s⁻¹,1400 µM
"SEQ ID NO: 414: GAT polypeptide (protein, 6F1, GAT polypeptide) MIEVKPINAEDTYEIRHRILRPNQPLEACMYETDLLGGTFHLGGYYRGKLVCIASFHKAEHSELEGQKQYQLRGMATLDGYREQKAGSTLIRHAEELLRKKGADLLWCNARTSVSGYYEKLGFSEQGEVYDIPPVGPHILMYKKLT",0.168 s⁻¹,1800 µM
"SEQ ID NO: 425: GAT polypeptide (protein, 9_15H3, GAT polypeptide) MIEVKPINAEDTYEIRHRILRPNQPLEACMYETDMLRGAFHLGGYYRGKLISIASFHQAEHPELEGQKQYQLRGMATLEEYHEQKAGSTLIRHAEELLRKKGADLLWCNARTSASGYYKKLGFSEQGEVYNTPPVGPHILMYKKLT",1.14 s⁻¹,1900 µM
"SEQ ID NO: 411: GAT polypeptide (protein, 6_7D1, GAT polypeptide) MIEVKPINAEDTYEIRHRILRPNQPLEACMYETDLLRGAFHLGGYYRGKLISIASFHQAEHSELEGQKQYQLRGMATLEGYREQKAGSTLIRHAEELLRKKGADLLWCNARTSASGYYKKLGFSEQGGVYDIPPVGPHILMYKKLT",0.328 s⁻¹,500 µM
